# From FireProtDB (doi:10.1021/acs.biochem.7b00571)
# B1: Salicylic acid-binding protein 2, Q6RYA0 (parent)
# chain: MKEGKHFVLVHGACHGGWSWYKLKPLLEAAGHKVTALDLAASGTDLRKIEELRTLYDYTLPLMELMESLSADEKVILVGHSLGGMNLGLAMEKYPQKIYAAVFLAAFMPDSVHNSSFVLEQYNERTPAENWLDTQFLPYGSPEEPLTSMFFGPKFLAHKLYQLCSPEDLALASSLVRPSSLFMEDLSKAKYFTDERFGSVKRVYIVCTEDKGIPEEFQRWQIDNIGVTEAIEIKGADHMAMLCEPQKLCASLLEIAHKYN
# Variants of: B1
# Details: Nicotiana tabacum; pH 7.2; 4 °C; Urea; Fluorescence; BES; reversible: yes; structure 1Y7I; whole UniProt chain shown
row,Variant,denaturant midpoint (higher = more stable) [M]
1,V227P,1.8
2,A189S,2.5
3,A189N,2.6
4,A71P,1.9
5,S251V,2.2
6,K188R,2.5
7,S141N,1.8
8,S141P,2.2
9,E244K,3
10,N114L,2
11,N114G,2.5
12,A230V,2.6
13,S115A,2.4
14,S115P,1.9
15,L60R,2.7
16,E215P,3.2
17,F197Y,2.2
18,S70P,2.4
19,I231R,1.9
20,C164S,0.9

row,Variant,denaturant midpoint (higher = more stable) [M]
1,G212C,3.5
2,K247E,1.1
3,L46P,2.4
4,S111P,1.7
5,S111G,1.7
6,I225T,1.5
7,T228S,1.9
8,G226P,1.6
9,G17A,2.1
10,A172V,2.3
11,C249A,2.1
12,L65F,3.8
13,A250K,2
14,Q221M,2.7
15,C243S,2.1
16,Y94F,2.2
17,S165P,2.5
18,E144M,2
19,E144Y,2.4
20,Q162H,2.4
